# Where a chain is given by its changes, count along the chain named.
# B1: anti-LY6K antibody 3063 (antibody, V domains shown)
# VH: EVQLVESGGGLVKPGRSLRLSCAASGFTFDDFAMHWVRQAPGKGLEWVSGLSWKGHTLGYADSVKGRFTFSRDSAKNSLYLQMNSLRAEDTALYYCAKDTRSGLDYWGQGTLVTVSS
# VL: DIVMTQTPLSSPVTLGQPASISCRSSQSLEHSDGNTYLSWLQQRPGQPPRLLIYKISNRFSGVPDRFSGNGAGTDFTLKISRVEAEDVGIYYCMQATEFPFTFGGGTKVEIK
# B2: anti-LY6K antibody 3719 (antibody, V domains shown)
# VH: EVQLVESGGGLVQPGRSLRLSCTASGFTFNDYAMHWVRQAPGKGLEWVSGISWNSNNIDYADSVKGRFTISRDNAKNSLYMQMNSLRAEDTALYYCAKDGPGTTNDAFDIWGQGTMVTVSS
# VL: DIQMTQSPSSLSASVGDRVTITCRASHSISSYLNWYQQKPGKAPKLLIYAASSLQSGVPSRFSGSGSGTDFTLTISSLQPEDFATYYCHQGYSTPLTFGGGTKVEIK
# B3: anti-LY6K antibody 3501 (antibody, V domains shown)
# VH: EVQLVESGGGLVQPGRSLRLSCAASGFTFDDYAMHWVRQAPGKGLEWVSGISWNSGTIDYADSVKGRFTISRDNAKNSLYLQVNSLRAEDTALYYCAKDSPQKDYYYMDVWGKGTTVTVSS
# VL: B2 VL with A25T, H27Q, K45N, H89Q, G91S, S93I, L96I, G100Q, K103R, V104L
# B4: anti-LY6K antibody 3514 (antibody, V domains shown)
# VH: QVQLVQSGAEVKKPGASVKVSCKASGYTFTSYGISWVRQATGQGLEWMGWMNPNSGNTGYAQKFQGRVTMTRNTSISTAYMELSSLRSEDTAVYYCRAAGYYYYYYYMDVWGKGTTVTVSS
# VL: not shown
# B5: anti-LY6K antibody 3518 (antibody, V domains shown)
# VH: EVQLVESGGGLVQPGGSLKLSCAASGFTFSGSAMNWVRQASGKGLEWVGRIRSKANSYATAYAASLKGRFTISRDDSKNTAYLQMNSLKTEDTAVYYCTVTPFDYWGQGTLVTVSS
# VL: DIQMTQSPSSLSASVGDRVTITCQASQDISNHLNWYQQKPGKAPKLLINDASNLETGVPSRFSGSGSGTDFTFTISSLQPEDIATYYCQQYDNVPYTFGQGTKLEIK
# B6: anti-LY6K antibody 3102 (antibody, V domains shown)
# VH: QVQLVQSGAEVKKPGASVKVSCKASGYTFTGYYIHWMRQAPGQGLEWMGWINPNSGGTNYAQNFQGRVTMTRDTSINTAYMELSRLKSDDTAVYYCAKESGSPWGQGTLVTVSS
# VL: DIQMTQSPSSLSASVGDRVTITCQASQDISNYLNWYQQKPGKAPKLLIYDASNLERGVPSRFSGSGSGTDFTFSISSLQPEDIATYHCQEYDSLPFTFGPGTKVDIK
# B7: anti-LY6K antibody 3743 (antibody, V domains shown)
# VH: EVQLVESGGGLVHPGRSLRLSCAASGFTFDDYAMHWVRQAPGKGLEWVSGISWKSGRIDYADSVKGRFTISRDNAKNSLYLQMNSLRAEDTALYYCAKDRRELTFDIWGQGTMVTVSS
# VL: B1 VL with D33N, N70S, I90V, A96T, E98Q, F101L
# B8: anti-LY6K antibody 3553 (antibody, V domains shown)
# VH: QVQLVQSGAEVKKPGASVKVSCKASGYTFTGYYMHWVRQAPGTGLDWMGWISPNSGGTNYAQKFQGRVTMTRDTSISTVYMELSRLRSDDTALYYCAREVGNYWGQGTLVTVSS
# VL: DIQMTQSPTSLSTSVGDRVTITCQASQDIYNYLNWYQLKPGKAPKLLIYDASNLERGVTSRFSGSGSGTDFTFTISSLQPEDIATYYCQQYDSLPITFGQGTRLEIK
# B9: anti-LY6K antibody 3527 (antibody, V domains shown)
# VH: EVQLVESGGGLVKPGGSLRLSCAASGFTFSSYSMNWVRQAPGKGLEWVSSISSTSSYIYYADSVKGRFTISRDNAKNSLYLQMNSLRAEDTAVYYCARSDYYDSGSYKNYYYYYMDVWGKGTTVTVSS
# VL: B2 VL with A25T, H27Q, Y36F, L46V, S56R, H89Q, G91S
# B10: anti-LY6K antibody 3728 (antibody, V domains shown)
# VH: EVQLVESGGGLVKPGGSLRLSCAASGFTFSDVWMSWVRQAPGKGLEWVGRIKSKTDGGRIDYAAPVKGRFTISRDDSKNTLYLQMNSLKTEDTAVYYCTTVPYSDYWGQGTLVTVSS
# VL: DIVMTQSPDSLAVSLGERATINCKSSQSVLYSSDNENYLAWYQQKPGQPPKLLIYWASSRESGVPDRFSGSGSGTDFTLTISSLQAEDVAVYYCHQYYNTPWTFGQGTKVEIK
# B11: anti-LY6K antibody 3055 (antibody, V domains shown)
# VH: EVQLVESGGGLVQPGRSLRLSCAASGFTFDDFAMHWVRQAPGKGLEWVSGISWNTGTIGYADSVKGRFTISRDNAKNSLYLQMNSLRAEDTALYYCAKDKGTTGFDYWGQGTLVTVSS
# VL: DIQMTQSPSSVSASVGDRVTITCRASQGISRWLVWYQQKPGKAPKLLIYAASSLQSGVPSRFSGSGSGTDFTLTISSLQPEDFATYYCQQANSFPRTFGQGTRLEIK
# B12: anti-LY6K antibody 2659 (antibody, V domains shown)
# VH: EVQLVESGGGLVQPGRSLRLSCAASGFTFDDYAMHWVRQAPGKGLEWVSGISWKSGIIGYADSVKGRFTISRDNAKNSLYLQMNSLRAEDTALYYCAKDSRTGLDYWGQGTLVTVSS
# VL: not shown
# notes: Has values only in SPR (CHO supernatant, captured by anti-human IgG-Fc)
# B13: anti-LY6K antibody 3056 (antibody, V domains shown)
# VH: EVQLVESGGGLVQPGRSLRLSCAASGFTYDDYAMHWVRQVPGKGLEWVSGITWKKSIIGYADSVRGRFTVSRDSAKNSLYLQMSSLRVEDTALCYCAKDSTDGLDYWGQGTLVTVSS
# VL: B1 VL with I21L, E30L, D33N, N70S, A85G, I90V, F101Y, G105Q, V109L
# notes: as for B12
# Molecular target: T1, human LY6E (R&D Systems) (human, UniProt Q16553 21-101, limits assumed)
# T1 construct: also called hLY6E
# T1 sequence (looked up): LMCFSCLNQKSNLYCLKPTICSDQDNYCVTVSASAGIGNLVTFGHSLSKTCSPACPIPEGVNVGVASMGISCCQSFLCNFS
# Assay: ELISA, antigen coated on the plate, antibody as human IgG1, anti-human F(ab)2 HRPO
row,Binder,binding result
1,B1,no binding (tested: 10 µg/ml)
2,B2,no binding (tested: 10 µg/ml)
3,B3,no binding (tested: 10 µg/ml)

# Molecular target: T2, Ly6H
# T2 chain: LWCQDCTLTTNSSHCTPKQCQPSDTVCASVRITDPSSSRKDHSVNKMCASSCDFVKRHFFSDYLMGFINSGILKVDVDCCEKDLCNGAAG
# Assay: as above
row,Binder,binding result
1,B1,no binding (tested: 10 µg/ml)
2,B2,no binding (tested: 10 µg/ml)
3,B3,no binding (tested: 10 µg/ml)

# Molecular target: T3, Ly6D
# T3 chain: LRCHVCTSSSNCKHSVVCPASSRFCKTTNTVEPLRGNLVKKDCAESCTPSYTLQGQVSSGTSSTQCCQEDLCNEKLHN
# Assay: as above
row,Binder,binding result
1,B1,no binding (tested: 10 µg/ml)
2,B2,no binding (tested: 10 µg/ml)
3,B3,no binding (tested: 10 µg/ml)

# Molecular target: T1, human LY6E (R&D Systems)
# Assay: ELISA, coated antigen, IgG1 at 10 ug/ml
row,Binder,% of maximum of commercial anti-LY6K mAb on human LY6K [%]
1,B4,2.9
2,B5,2.1
3,B6,3.8
4,B7,5
5,B1,4.2
6,B8,5
7,B2,4.2
8,B9,4.6
9,B3,4.3
10,B10,1

# Molecular target: T4, rat LY6K (R&D Systems) (rat)
# T4 construct: also called rLY6K
# Assay: ELISA, coated antigen, IgG1 at 10 ug/ml
row,Binder,% of maximum of commercial anti-LY6K mAb on human LY6K [%]
1,B4,0
2,B5,2.1
3,B11,0.4
4,B6,0.2
5,B7,2.6
6,B1,-0.2
7,B8,2.4
8,B2,-1.7
9,B9,1.1
10,B3,0.4
11,B10,-1.3

# Molecular target: T5, Human LY6K (R&D Systems) (human, UniProt Q17RY6 18-138, limits assumed)
# T5 construct: Bought from R&D Systems, coated on ELISA plates; also called hLY6K
# T5 sequence: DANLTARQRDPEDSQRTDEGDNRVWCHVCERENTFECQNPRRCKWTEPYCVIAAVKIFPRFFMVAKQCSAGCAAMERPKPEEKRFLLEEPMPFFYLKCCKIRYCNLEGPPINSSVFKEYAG
# Assay: ELISA, coated antigen, IgG1 at 10 ug/ml
row,Binder,% of maximum of commercial anti-LY6K mAb on human LY6K [%]
1,B11,22.6
2,B6,38.4
3,B8,26
4,B9,54.6
5,B10,96.4

# Molecular target: T6, cynomolgus monkey LY6K (R&D Systems) (cynomolgus monkey)
# T6 construct: also called cyLY6K
# Assay: ELISA, coated antigen, IgG1 at 10 ug/ml
row,Binder,% of maximum of commercial anti-LY6K mAb on human LY6K [%]
1,B4,2.6
2,B5,2.7
3,B11,40.3
4,B6,40.1
5,B7,3.5
6,B1,2.6
7,B8,28.9
8,B2,0.8
9,B9,58
10,B3,2
11,B10,110

# Molecular target: T7, hLY6K-his (human, UniProt Q17RY6 18-138, limits assumed)
# T7 construct: not shown: his tag
# T7 sequence: T5 sequence
# Assay: SPR (Carterra LSA), mAb captured on anti-human IgG-Fc, antigen as analyte
row,Binder,Kd [nM]
1,B12,6.13
2,B13,0.472
3,B10,4.96

# Molecular target: T8, hLY6K-mFc (human, UniProt Q17RY6 18-138)
# T8 construct: not shown: mFc
# T8 sequence: T5 sequence
# Assay: as above
row,Binder,Kd [nM]
1,B12,0.034
2,B13,0.0233
3,B10,0.00734

# Molecular target: cyLY6K-mFc (cynomolgus monkey)
# Assay: as above
row,Binder,Kd [nM]
1,B10,0.0786

# From patent publication US20260193375A1 (NORMUNITY, published 2026)
